This note sets out measurements from US20120309934A1 (GWANGJU INSTITUTE OF SCIENCE AND TECHNOLOGY, published 2012).

In general, koff refers to the rate constant with which the complex falls apart. Read a low koff as slow dissociation. Broadly, the kon is the second-order rate constant of association. Low values mean slower complex formation, high ones faster complex formation. By Kd is commonly meant the concentration at which binding is half-saturated. A low value points to a tighter complex.

Like-named read-outs stand apart in the source and are kept apart here.

Assay [1] addresses T1, VEGF121 (human vascular endothelial growth factor) (human, UniProt P15692-9 27-147).
T1 construct: Immobilised on a CM5 chip by EDC/NHS for SPR and coated on plates for phage ELISA; also called VEGF-Trx cut with thrombin
T1 sequence (looked up): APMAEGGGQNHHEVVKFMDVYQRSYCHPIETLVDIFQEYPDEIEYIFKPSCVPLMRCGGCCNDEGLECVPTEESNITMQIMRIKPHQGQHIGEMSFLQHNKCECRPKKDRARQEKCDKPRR
Put plainly: SPR (BIAcore X), VEGF on CM5 chip. The method, then:
(§1) Bipodal-peptide binder peptides specific to ED-B, VEGF or nAchR which were repetitively found in DNA sequencing were synthesized from Anigen Inc. (Korea). Affinity was measured using BIAcore X instrument (Biacore AB, Uppsala, Sweden). ED-B and nAchR were immobilized on streptavidin (SA) chip (Biacore) by injecting 2,000 RU biotinylated-EDB. VEGF was immobilized on CM5 chip (Biacore) using EDC/NHS. PBS (pH 7.4) was used as a running buffer.
(§2) The above-mentioned peptides were synthesized and their affinities to fibronectin ED-B, VEGF, VCAM1, nAchR and HAS were measured using SPR Biacore system (Biacore AB, Uppsala, Sweden).
For orientation: SPR reads the build-up and loss of mass on a sensor chip optically.

Assay [2] addresses T2, BSA (UniProt P02769 25-607).
T2 construct: Control protein in the input-phage ELISA; also called bovine serum albumin
Put plainly: phage ELISA, absorbance at 450 nm. For orientation: In an ELISA, binding on a coated surface is turned into a signal by an enzyme label.

The target in assay [3] is T1, VEGF121 (human vascular endothelial …). Put plainly: SPR (BIAcore X), VEGF on CM5 chip, synthetic peptide as analyte. The method, then: as §1, §2
Assay [4] shares this target. The assay is described as follows: phage ELISA, absorbance at 450 nm.
Assay [5] addresses T3, Fibronectin ED-B protein (human fibronectin extra domain B, N-terminal His-tag) (human, UniProt P02751 1266-1356, biotinylated with sulfo-NHS-SS-biotin for biopanning, input-phage ELISA and SPR on the streptavidin chip).
T3 construct: domain: ED-B; Expressed in E. coli BL21 from pET28b; also called biotinylated-EDB; not shown: N-terminal His-tag from the pET28b vector
Put plainly: SPR, synthetic bipodal peptide on ED-B. The procedure:
as §1
To verify cooperative effect of bipodal-peptide binder to antigen, we synthesized two peptides removing either N- or C-terminal region of peptide 2 to ED-B having excellent specificity in Table 3a for affinity measurement.

Assay [6] has as its target T2, BSA. The assay is described as follows: phage ELISA, absorbance at 450 nm. This is another data set of the same source.
Assay [7] concerns the target T4, Streptavidin (UniProt P22629 37-163, limits assumed).
T4 construct: Control protein in the input-phage ELISA; also called straptavidin
The assay is described as follows: phage ELISA, absorbance at 450 nm.

Assay [8] deals with T3, Fibronectin ED-B protein (human …). Put plainly: SPR (BIAcore X), biotinylated ED-B on SA chip. The method, then:
as §1, §2

Assay [9] shares this target. Put plainly: SPR (BIAcore X), biotinylated ED-B on streptavidin chip, synthetic peptide as analyte. The procedure: as §1, §2
Assay [10] shares this target. Put plainly: phage ELISA on 10 coated proteins (streptavidin, ED-B, acetylcholine α1, BSA, VCAM, TNF-α, thrombin, myoglobin, lysozyme, visfatin), anti-M13-HRP. The procedure:
Specificity of recombinant phages to each protein was carried out using ELISA. Each protein (5 μg/ml) was seeded into wells (50 μl per well) in a 96-well ELISA plate and next day, all wells were washed with 0.1% PBST (Tween-20) three times, and blocked at room temperature for 2 hrs using 2% skim milk. Then, the solution was completely removed and the plate was washed with 0.1% PBST three times. Recombinant phages containing the peptide of the present invention were thoroughly mixed with 2% BSA. Each mixture (100 μl) was divided into wells coated with 10 proteins and kept to stand at 27° C. for 2 hrs. After washing with 0.1% PBST 5 times, HRP-conjugated anti-M13 antibodies (1:1,000 dilution; GE Healthcare) were added to each well and incubated at 27° C. for 1 hr. After washing with 0.1% PBST 5 times, 100 μl TMB was divided into each well to induce colorimetric reaction, followed by stopping the reaction adding 100 μl of 1 M HCl. The absorbance was measured at 450 nm.

In assay [11] the target is T2, BSA. The assay is described as follows: phage ELISA, absorbance at 450 nm. This is another data set of the same source.
In assay [12] the target is T1, VEGF121 (human vascular endothelial …). The assay is described as follows: phage ELISA, absorbance at 450 nm. This is another data set of the same source.
Assay [13] addresses T4, Streptavidin. Put plainly: phage ELISA, absorbance at 450 nm. The source holds these as a separate data set.
The next assay concerns the target STAT3 protein (UniProt P40763 1-770, limits assumed). The assay is described as follows: phage ELISA of single clones on STAT3 against streptavidin. The procedure:
(§3) STAT3 (10 μg/ml), BSA (10 μg/ml) and streptavidin (10 μg/ml) each was added to 30 wells (50 μl per well) in a 96-well ELISA plate and then kept to stand at 4° C. overnight. Next day, all wells were washed with 0.1% PBST three times, and blocked at room temperature for 2 hrs using 2% skim milk diluted with PBS. Then, the solution was removed and the plate was washed with 0.1% PBST three times. Phage peptide solution (100 μl) amplified from each clone was aliquoted to STAT3-bound wells and streptavidin protein-bound wells and kept to stand at 27° C. for 1.5 hrs. After washing with 0.1% PBST 10 times, HRP-conjugated anti-M13 antibodies (1:1,000 dilution; GE Healthcare) were added to each well and incubated at 27° C. for 1 hr. After washing with 0.1% PBST 5 times, 100 μl TMB was divided into each well to induce colorimetric reaction, followed by stopping the reaction adding 100 μl of 1 M HCl. The absorbance was measured at 450 nm to select phages which had the absorbance above 20-fold higher than BSA. XL1 cells were infected with these phages and spread in plate to produce 100-200 of plaques. […]
The phages recovered from the 4th biopanning step having the highest O/I ratio in each library were isolated as plaques. […] The DNA 10 sequencing was performed for 6 clones showing the absorbance value above 2-fold higher than streptavidin. […]

Assay [14] deals with T2, BSA. Put plainly: phage ELISA, absorbance at 450 nm. The source holds these as a separate data set.
The target in assay [15] is T5, Peptide fragment of nAchR (Nicotinic acetylcholine receptor), 32 mer, biotinylated (N-terminal biotin).
T5 construct: Synthesised by Anigen; Immobilised on a streptavidin chip for SPR; also called biotinylated nAchR; biotinylated-nAchR peptide
T5 peptide: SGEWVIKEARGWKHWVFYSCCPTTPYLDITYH
Put plainly: SPR (BIAcore X), biotinylated nAchR peptide on SA chip. The procedure: as §1, §2

Assay [16] deals with T5, Peptide fragment of nAchR (Nicotinic …). The assay is described as follows: SPR (BIAcore X), biotinylated nAchR peptide on streptavidin chip, synthetic peptide as analyte. The method, then:
as §1, §2

The target in assay [17] is T6, GST-AR DBD protein (androgen receptor DNA binding domain with N-terminal GST) (UniProt P10275 556-636).
T6 construct: In ELISA and EMSA the text calls the protein AR-DBD or AR DBD protein; also called androgen receptor DBD; not shown: GST encoded by the pGEX-4T-1 vector, N-terminal
T6 sequence (looked up): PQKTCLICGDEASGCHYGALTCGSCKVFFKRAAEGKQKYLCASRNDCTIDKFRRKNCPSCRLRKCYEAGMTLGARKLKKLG
Put plainly: phage ELISA of single clones on AR-DBD against BSA. The procedure: as §3, with “AR-DBD” for “STAT3 (10 μg/ml), BSA”, “BSA” for “streptavidin”, “[…] protein-bound” for “STAT3-bound”
The phages recovered from the 5th biopanning step having the highest O/I ratio in each library were isolated as plaques. […] Most plaques were analyzed to show the absorbance value of AR-DBD higher than that of BSA. The DNA sequencing was performed for 20 clones showing the absorbance value above 5-fold higher than BSA. […]

Assay [18] has as its target T7, Human serum albumin (human, UniProt P02768 25-609).
T7 construct: Bought protein; also called HSA; HAS
The assay is described as follows: SPR (Biacore).

Assay [19] addresses T4, Streptavidin. Put plainly: phage ELISA, absorbance at 450 nm. The source holds these as a separate data set.
Assay [20] deals with T7, Human serum albumin. The assay is described as follows: SPR (Biacore), synthetic peptide; immobilisation of HSA not described.

T2 sequence (P02769 25-607 limits assumed): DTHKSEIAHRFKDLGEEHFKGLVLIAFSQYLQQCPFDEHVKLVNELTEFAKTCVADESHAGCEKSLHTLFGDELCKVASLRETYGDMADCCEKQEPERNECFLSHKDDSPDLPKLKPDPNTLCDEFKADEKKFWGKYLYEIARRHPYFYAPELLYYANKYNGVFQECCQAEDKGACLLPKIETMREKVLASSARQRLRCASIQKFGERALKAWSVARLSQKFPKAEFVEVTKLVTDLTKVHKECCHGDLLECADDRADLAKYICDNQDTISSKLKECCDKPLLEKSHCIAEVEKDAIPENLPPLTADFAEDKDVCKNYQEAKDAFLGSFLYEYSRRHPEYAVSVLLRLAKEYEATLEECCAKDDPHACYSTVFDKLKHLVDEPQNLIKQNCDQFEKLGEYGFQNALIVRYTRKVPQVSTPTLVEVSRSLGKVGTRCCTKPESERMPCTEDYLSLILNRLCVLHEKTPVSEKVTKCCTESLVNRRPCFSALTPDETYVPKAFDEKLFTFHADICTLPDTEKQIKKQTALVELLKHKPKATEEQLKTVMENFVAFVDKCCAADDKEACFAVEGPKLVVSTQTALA
T7 sequence (P02768 25-609 limits assumed): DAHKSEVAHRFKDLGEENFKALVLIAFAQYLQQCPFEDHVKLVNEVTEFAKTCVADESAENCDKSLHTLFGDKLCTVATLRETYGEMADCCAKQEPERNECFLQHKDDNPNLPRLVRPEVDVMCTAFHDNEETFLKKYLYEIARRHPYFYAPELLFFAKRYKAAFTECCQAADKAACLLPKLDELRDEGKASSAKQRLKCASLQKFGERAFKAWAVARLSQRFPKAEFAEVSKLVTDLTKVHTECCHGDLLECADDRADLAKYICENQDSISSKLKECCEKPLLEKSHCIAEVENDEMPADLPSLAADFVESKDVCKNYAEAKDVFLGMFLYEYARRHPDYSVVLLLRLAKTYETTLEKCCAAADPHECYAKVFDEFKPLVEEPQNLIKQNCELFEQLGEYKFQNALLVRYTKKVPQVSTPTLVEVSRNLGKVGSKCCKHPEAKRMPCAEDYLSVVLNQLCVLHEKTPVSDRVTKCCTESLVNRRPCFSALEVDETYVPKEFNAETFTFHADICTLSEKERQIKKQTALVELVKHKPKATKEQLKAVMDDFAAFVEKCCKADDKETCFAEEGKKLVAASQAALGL
T3 sequence (P02751 1266-1356): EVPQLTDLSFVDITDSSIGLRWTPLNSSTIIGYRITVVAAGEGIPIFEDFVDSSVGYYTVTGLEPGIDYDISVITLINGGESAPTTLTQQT
T4 sequence (P22629 37-163 limits assumed): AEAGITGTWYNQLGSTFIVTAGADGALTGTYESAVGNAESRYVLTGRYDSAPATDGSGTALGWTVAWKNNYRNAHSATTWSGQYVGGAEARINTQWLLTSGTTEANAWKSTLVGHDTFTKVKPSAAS
STAT3 protein, sequence (P40763 whole entry): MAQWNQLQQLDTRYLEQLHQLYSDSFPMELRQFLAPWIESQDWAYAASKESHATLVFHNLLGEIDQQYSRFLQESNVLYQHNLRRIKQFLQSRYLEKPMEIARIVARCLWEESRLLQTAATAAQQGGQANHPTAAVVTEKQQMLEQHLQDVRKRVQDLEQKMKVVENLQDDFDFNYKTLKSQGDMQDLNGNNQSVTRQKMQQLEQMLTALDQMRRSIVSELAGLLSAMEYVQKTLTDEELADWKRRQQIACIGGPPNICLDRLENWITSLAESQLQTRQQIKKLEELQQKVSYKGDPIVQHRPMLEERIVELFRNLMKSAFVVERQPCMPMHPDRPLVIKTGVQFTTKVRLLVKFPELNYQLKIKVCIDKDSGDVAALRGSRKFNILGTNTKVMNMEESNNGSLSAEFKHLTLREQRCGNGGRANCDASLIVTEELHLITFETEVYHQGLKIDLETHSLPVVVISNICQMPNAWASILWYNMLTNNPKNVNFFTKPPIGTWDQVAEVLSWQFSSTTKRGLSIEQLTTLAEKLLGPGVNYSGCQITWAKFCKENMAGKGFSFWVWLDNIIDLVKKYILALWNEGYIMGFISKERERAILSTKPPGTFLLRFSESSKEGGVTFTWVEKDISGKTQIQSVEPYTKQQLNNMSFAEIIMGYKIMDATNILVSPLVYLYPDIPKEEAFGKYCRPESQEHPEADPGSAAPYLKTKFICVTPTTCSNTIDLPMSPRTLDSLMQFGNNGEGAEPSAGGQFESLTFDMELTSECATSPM

In the case of HANFFQGSWTWENGKWTWKGWKYNQS [Peptide 1 specific to VEGF (Table 3b), bipodal-peptide binder], in [1], the koff was determined as 0.013 s⁻¹ and the kon turned out to be 220000 M⁻¹ s⁻¹. For the same molecule, the binding result in the assay with BSA [2] was “no binding”. The same molecule returned a Kd in [3] of 60 nM.

Regarding HSHAFYGSWTWENGKWTWKGNPGWWT [Peptide 1 specific to MyD88 (Table 3f), bipodal-peptide binder], the binding result in [4] is “no binding”.

Turning to HCSSAVGSWTWENGKWTWKGIIRLEQ [Peptide 2 specific to fibronectin ED-B (Table 3a), bipodal-peptide binder with tryptophan zipper], the results for the Kd in assay [5] and in assay [9] were 43 nM and 75 nM, respectively. Besides, the binding result with BSA [6] and with Streptavidin [7] was “no binding” throughout. Further, the off-rate (koff) in assay [8] is 0.0008 s⁻¹. In assay [8], this molecule registered an on-rate constant (kon) of 10000 M⁻¹ s⁻¹. Moreover, in [10], the “fold absorbance over other proteins” value is over 30 fold.

Consider HGFQWPGSWTWENGKWTWKGAYQFLK (also called BPB2) [STAT3-specific bipodal-peptide binder Peptide 2], for which the binding result (with BSA [11]; in assay [12]; with Streptavidin [13]) was “no binding” throughout. Also, in the assay with STAT3 protein, the “fold absorbance over streptavidin” value is over 2 fold.

As for EASFWLGSWTWENGKWTWKGKGTLNR [Peptide 1 specific to nAchR (Table 3d), bipodal-peptide binder], the binding result with BSA [14] is reported as “no binding”. For the same molecule, in assay [15], the koff was 0.0085 s⁻¹ and the on-rate (kon) was found to be 110000 M⁻¹ s⁻¹. The same molecule showed a dissociation constant Kd in assay [16] of 73 nM.

For the molecule GGHNIQGSWTWENGKWTWKGWQHIWG [Peptide 2 from the AR-DBD biopanning (6/20 clones), bipodal-peptide binder], the “fold absorbance over BSA” value in assay [17] was over 5 fold.

As to AASPYKGSWTWENGKWTWKGGWRMKM [Peptide 1 specific to HSA (Table 3e), bipodal-peptide binder], in the assay with Human serum albumin [18], the koff is 0.02 s⁻¹ and the kon is 250000 M⁻¹ s⁻¹. For the same molecule, in the assay with Streptavidin [19], the binding result is recorded as “no binding”. Moreover, the Kd with Human serum albumin [20] turned out to be 115 nM.
